Experimental data reported in publication PMC4992171.

Legend:
iRFP713 [1] = assay: SEC; side-by-side comparison of miRFPs with IFP2.0 and iRFP713 (Supplementary Fig. 3 or 4), HiLoad 16/600 Superdex 200; concentration not given
iRFP713 [2] = assay: AUC; sedimentation velocity, 20 °C, 58,000 r.p.m., PBS, absorbance at 645 nm, protein at A645 ≈0.9; side-by-side comparison of miRFPs with IFP2.0 and iRFP713
IFP2.0 [3] = assay: SEC; side-by-side comparison of miRFPs with IFP2.0 and iRFP713 (Supplementary Fig. 3 or 4), HiLoad 16/600 Superdex 200; concentration not given
IFP2.0 [4] = assay: AUC; sedimentation velocity, 20 °C, 58,000 r.p.m., PBS, absorbance at 645 nm, protein at A645 ≈0.9; side-by-side comparison of miRFPs with IFP2.0 and iRFP713

| Substance | stoichiometry N (iRFP713 [1]) | stoichiometry N (iRFP713 [2]) | stoichiometry N (IFP2.0 [3]) | stoichiometry N (IFP2.0 [4]) |
| --- | --- | --- | --- | --- |
| iRFP713 | 2 | 2 | – | – |
| IFP2.0 | – | – | 2 | 2 |
